The text below walks through data of the supplement of paper PMC10126150.

This data set deals with ATP. The data set can be described thus: switch fluorescence ratio, 500 uM ATP over buffer (Cy3 cluster intensity, sum of 5 cycles each) (fold (ratio)); higher = stronger signal-on switching upon ATP binding; sequences stand for … in TCGTCGGCAGCGTCAGATGTGTATAAGAGACAGTTTTTTTTTTTTTTTTTTTTTTTTT…TC. The note with it: aptamer strand: ATP DNA aptamer (quencher-CACCTGGGGGAGTATTGCGGAGGAAGG + anchor), 100 nM annealed; ATP concentration: 500 uM. Summed up: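 The fluorescence ratio divides summed target-cycle Cy3 intensity by summed buffer-cycle Cy3 intensity for each cluster and is averaged per switch-domain sequence. Cy3-labelled switching-strand clusters on a modified Illumina MiSeq flow-cell were annealed to 100 nM quencher-labelled ATP aptamer, then imaged in selection buffer and again after 15 min with 500 uM ATP at 22 °C. Five such cycles were run, with NaOH stripping and re-annealing between them, and clusters outside 100-1000 RFU were excluded.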

± gives the standard deviation of the averaged measurements.
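Note: ATP exposure 15 min at 22 °C before imaging.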

GTTTGTTGAG: the switch fluorescence ratio was found to be 0.979 ± 0.025.

On to ATGTATCAGG, for which the switch fluorescence ratio was 1.03 ± 0.022.

With CCGCGACAAG, the switch fluorescence ratio stood at 2.18 ± 0.086.

Take TAGACTTATG: the switch fluorescence ratio is 1.04 ± 0.02.

As to GCGTACCAAT, the switch fluorescence ratio is 1.067 ± 0.0033.

As to TTTAGCCTTT, the switch fluorescence ratio was determined as 1.06 ± 0.11.

Consider CACATGACAC, for which the switch fluorescence ratio amounted to 1.13 ± 0.015.

For the sequence TTGGAAGGGA, the switch fluorescence ratio came to 1 ± 0.015.

For GTACATATAA, the switch fluorescence ratio stood at 1.03 ± 0.011.

For the sequence CGCCTGACAC, the switch fluorescence ratio stood at 1.26 ± 0.0035.

For the sequence TTCTTTTACT, the switch fluorescence ratio stood at 1.01 ± 0.023.

For CGTCGCGGGC, the switch fluorescence ratio is 1.0404 ± 0.00051.

With GGTCTTTCG, the switch fluorescence ratio was 0.9794 ± 0.0025.

For TTATAAGTTA, the switch fluorescence ratio was 0.9814 ± 0.0043.

Regarding GGGGGGCTAA, the switch fluorescence ratio amounted to 0.984 ± 0.021.

For the sequence GCAGGTATCA, the switch fluorescence ratio came out at 1.018 ± 0.007.

As to AGGGGCAGGA, the switch fluorescence ratio came out at 0.941 ± 0.06.

As to ATTTTTTTTC, the switch fluorescence ratio amounted to 0.989 ± 0.022.

For the sequence TTGTGGGGTC, the switch fluorescence ratio is 1 ± 0.036.

With TATGGCATCT, the switch fluorescence ratio was 1 ± 0.051.

As to ATCTATTATT, the switch fluorescence ratio is 1.012 ± 0.006.

Regarding GCTCCGTGGG, the switch fluorescence ratio came out at 1.93 ± 0.1.

In the case of GAGGCCGTTG, the switch fluorescence ratio is 1.02 ± 0.023.

Take ATGGAGGGCA: the switch fluorescence ratio amounted to 1.03 ± 0.049.

As for GAGAGTTTTC, the switch fluorescence ratio came to 0.985 ± 0.037.

In the case of ACGCCACATT, the switch fluorescence ratio came out at 1.55 ± 0.091.

With TTCGGGTCCG, the switch fluorescence ratio amounted to 0.988 ± 0.067.

On to TGCTTGCTTT, for which the switch fluorescence ratio is 1.004 ± 0.01.

For the sequence GGGGAAAATT, the switch fluorescence ratio was 0.993 ± 0.036.

Regarding GCATATTTTT, the switch fluorescence ratio was 1.026 ± 0.0032.

AGAGATTCGG: the switch fluorescence ratio was found to be 1.012 ± 0.01.

Regarding ATGCAAGGGC, the switch fluorescence ratio was 1.08 ± 0.024.

As for TTTGCTTTAA, the switch fluorescence ratio amounted to 1 ± 0.067.

Take TTTAGATGAG: the switch fluorescence ratio was 0.986 ± 0.053.

GTTATAGGCT: the switch fluorescence ratio was found to be 0.999 ± 0.035.

On to GTTCACCGGG, for which the switch fluorescence ratio was 1.141 ± 0.0051.

As to ATCCGCTAGT, the switch fluorescence ratio was found to be 2.16 ± 0.19.

Turning to AGGCCGGAGC, the switch fluorescence ratio turned out to be 1.06 ± 0.036.

With GGATGGGGCC, the switch fluorescence ratio is 0.995 ± 0.032.

Take GGAGTACGGC: the switch fluorescence ratio amounted to 1.06 ± 0.052.

Consider CGTTCGCTTA, for which the switch fluorescence ratio turned out to be 1.96 ± 0.037.

On to TTTATTTCTT, for which the switch fluorescence ratio came out at 0.98163 ± 0.0001.

For GGTTGGAGTT, the switch fluorescence ratio was determined as 0.984 ± 0.0049.

As to TTATGAACTT, the switch fluorescence ratio came out at 1 ± 0.035.

For ATTGACGGGT, the switch fluorescence ratio was determined as 0.9762 ± 0.0085.

In the case of CGCATGGAGT, the switch fluorescence ratio is 1.04 ± 0.015.

With TTGACGTAAA, the switch fluorescence ratio is 1.61 ± 0.56.

Consider ATTTTAAGGC, for which the switch fluorescence ratio worked out at 1.002 ± 0.0054.

Take GGGGTAGTCG: the switch fluorescence ratio is 0.988 ± 0.012.

In the case of TTTCTTGGCG, the switch fluorescence ratio came out at 1 ± 0.03.

In the case of GGGGGTTGAC, the switch fluorescence ratio amounted to 1.01 ± 0.027.

Take ATTTATTTGT: the switch fluorescence ratio was found to be 0.986 ± 0.03.

For AAGGGAAAGA, the switch fluorescence ratio was 1.02 ± 0.061.

Turning to GCCAGAGGGG, the switch fluorescence ratio stood at 1.19 ± 0.34.

Consider TCTTGAGGGG, for which the switch fluorescence ratio was determined as 0.982 ± 0.034.

On to TGGTATAGTA, for which the switch fluorescence ratio was determined as 0.993 ± 0.019.

CAAGGGGGAT: the switch fluorescence ratio turned out to be 1.01 ± 0.013.

For TGGTAATGGG, the switch fluorescence ratio came out at 1.01 ± 0.049.

On to AAAAGTCCGC, for which the switch fluorescence ratio worked out at 1.45 ± 0.062.

As for ATCAATTTCT, the switch fluorescence ratio turned out to be 0.974 ± 0.014.

On to AACTGGGGGA, for which the switch fluorescence ratio turned out to be 1.06 ± 0.054.

In the case of CGTAAATTGT, the switch fluorescence ratio came to 0.9672 ± 0.0039.

Turning to GGTGTTTCGT, the switch fluorescence ratio came out at 0.9735 ± 0.001.

TGGTTTTCTG: the switch fluorescence ratio is 1.03 ± 0.051.

As for TGGTGTTTGG, the switch fluorescence ratio stood at 0.979 ± 0.032.

As for TGCGGGATGA, the switch fluorescence ratio was determined as 1.04 ± 0.018.

As to AGCAAGTATC, the switch fluorescence ratio worked out at 1.24 ± 0.033.

As for GACAGGTGAG, the switch fluorescence ratio is 1.15 ± 0.058.

Turning to TTCATGTGTT, the switch fluorescence ratio came out at 1.04 ± 0.037.

Consider AGGTATCAGA, for which the switch fluorescence ratio was determined as 0.972 ± 0.021.

With TTTTGCACCG, the switch fluorescence ratio is 1.02 ± 0.053.

GGCATTTGTA: the switch fluorescence ratio was 1 ± 0.02.

For the sequence CGAGTCCAGG, the switch fluorescence ratio turned out to be 6.48 ± 0.097.

On to TCTTGGTTGA, for which the switch fluorescence ratio was 0.968 ± 0.02.

Turning to TAATTATAGT, the switch fluorescence ratio turned out to be 1.01 ± 0.011.

Turning to TGCTAGTTT, the switch fluorescence ratio was found to be 0.98 ± 0.015.

For TATAAGGAGT, the switch fluorescence ratio is 1.01 ± 0.044.

As for TTTTCCGTTC, the switch fluorescence ratio stood at 1.02 ± 0.021.

Consider TTAGTTTTAC, for which the switch fluorescence ratio is 1.004 ± 0.0029.
